Results as given in paper PMC8622166.
Values belong to the substance of their own block, whether it stands above or below them.

Legend:
[1] = target: geranylgeranylated RAC1 (RAC1^GG) (human) (UniProt P63000); assay: not stated
[2] = target: RAC1^ΔC10 (C-terminal truncated variant lacking HVR-CAAX) (human) (UniProt P63000); assay: fluorescence polarisation; increasing GDI1 (variants) titrated to 0.2 µM mdGDP-bound RHO protein, 200 µL; 25 °C, 30 mM Tris/HCl pH 7.5, 10 mM K2HPO4/KH2PO4 pH 7.5, 5 mM MgCl2, 3 mM DTT; quadratic binding equation
[3] = target: RAC1, RAC3, RHOG and RHOA; assay: stopped-flow fluorimetry; kon from kobs against increasing GDI concentrations mixed with 0.2 µM mdGDP-bound RHO GTPase; koff by displacement with excess unlabeled GDP-bound RHO protein; Kd = koff/kon; 25 °C, 30 mM Tris/HCl pH 7.5, 10 mM K2HPO4/KH2PO4 pH 7.5, 5 mM MgCl2, 3 mM DTT
[4] = target: geranylgeranylated RAC1 (RAC1^GG) (human) (UniProt P63000); assay: as above
RHOA (Homo sapiens) = RHOA (Homo sapiens) (UniProt P61586); conditions: cited from earlier work
RAC1 (Homo sapiens) = RAC1 (Homo sapiens) (UniProt P63000); conditions: cited from earlier work
CDC42 (Homo sapiens) = CDC42 (Homo sapiens) (UniProt P60953); conditions: cited from earlier work
[5] = target: geranylgeranylated RAC1 (RAC1^GG) (human) (UniProt P63000); assay: stopped-flow fluorimetry; association (kobs) at one concentration: 2 µM GDI mixed with 0.2 µM mdGDP-bound RHO GTPase; 25 °C, 30 mM Tris/HCl pH 7.5, 10 mM K2HPO4/KH2PO4 pH 7.5, 5 mM MgCl2, 3 mM DTT
[6] = target: non-isoprenylated RAC1 full-length (RAC1^FL) (human) (UniProt P63000); assay: as above
[7] = target: non-isoprenylated RAC1 full-length (RAC1^FL) (human) (UniProt P63000); assay: fluorescence polarisation; increasing GDI1 (variants) titrated to 0.2 µM mdGDP-bound RHO protein, 200 µL; 25 °C, 30 mM Tris/HCl pH 7.5, 10 mM K2HPO4/KH2PO4 pH 7.5, 5 mM MgCl2, 3 mM DTT; quadratic binding equation
[8] = target: non-isoprenylated RAC1 full-length (RAC1^FL) (human) (UniProt P63000); assay: stopped-flow fluorimetry; kon from kobs against increasing GDI concentrations mixed with 0.2 µM mdGDP-bound RHO GTPase; koff by displacement with excess unlabeled GDP-bound RHO protein; Kd = koff/kon; 25 °C, 30 mM Tris/HCl pH 7.5, 10 mM K2HPO4/KH2PO4 pH 7.5, 5 mM MgCl2, 3 mM DTT

CDC42 (Homo sapiens), sequence (P60953 1-188): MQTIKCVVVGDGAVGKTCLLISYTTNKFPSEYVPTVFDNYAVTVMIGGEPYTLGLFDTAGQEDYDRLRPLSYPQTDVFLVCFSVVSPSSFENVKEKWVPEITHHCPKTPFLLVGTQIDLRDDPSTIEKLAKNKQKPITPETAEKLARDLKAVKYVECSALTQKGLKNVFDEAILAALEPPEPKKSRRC
RHOA (Homo sapiens), sequence (P61586 1-190): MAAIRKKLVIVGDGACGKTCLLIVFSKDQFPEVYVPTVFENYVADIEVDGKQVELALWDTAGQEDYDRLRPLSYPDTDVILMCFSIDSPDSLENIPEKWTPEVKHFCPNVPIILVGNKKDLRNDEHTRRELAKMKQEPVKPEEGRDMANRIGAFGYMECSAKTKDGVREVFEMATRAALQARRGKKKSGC

Kd [1]: 180 nM
fold lower Kd than for RAC1^FL [1]: 2.5 to 4.6 fold
fold lower affinity than for RAC1 [2]: 26 fold
Kd [3]: 900 to 3200 nM
fold difference of koff between RAC1^GG and RAC1^FL [4]: 3 fold
fold higher affinity than for RAC1^FL (Kd from koff/kon) [4]: 7 fold
Substance: GDI1 (RHOGDI1), wild type (from UniProt P52565 1-204) (natural protein)

Substance: GDI1 (from UniProt P52565)
Kd (RHOA (Homo sapiens)): 0.005 nM
Kd (RAC1 (Homo sapiens)): 0.4 nM
Kd (CDC42 (Homo sapiens)): 1.6 nM

fold slower association rate than GDI1^WT [5]: < 24 fold
fold slower association rate than GDI1^WT [6]: < 24 fold
fold change of Kd against GDI1^WT [7]: 140 fold
fold difference in kon against GDI1 wt [8]: > 100 fold
Substance: GDI1^ΔC6 (from UniProt P52565 1-198) (domain or fragment)

fold slower association rate than GDI1^WT [5]: < 24 fold
fold slower association rate than GDI1^WT [6]: < 24 fold
fold change of Kd against GDI1^WT [7]: 440 fold
fold difference in kon against GDI1 wt [8]: > 100 fold
Substance: GDI1^ΔN15 (from UniProt P52565 16-204) (domain or fragment)
